Reference: patent US20240092919A1 (Ablynx, published 2024)
“And” between values parts separate entries of the source, which are not always exact repeats. Equal values may be shown once.

Assays:
human GPC3 on cells [1] = biological target: T1, human GPC3 on cells (human, UniProt P51654 25-554); test: cell-based or functional assay
[2] = biological target: T2, human TCR on primary human T cells (human, UniProt P01848 1-140; P01850 1-176); test: cell-based or functional assay
T2 TCR alpha (looked up): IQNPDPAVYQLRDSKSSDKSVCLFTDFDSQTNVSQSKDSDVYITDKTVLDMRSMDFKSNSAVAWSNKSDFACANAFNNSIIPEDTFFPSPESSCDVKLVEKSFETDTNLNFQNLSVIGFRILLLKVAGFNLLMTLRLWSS
T2 TCR beta (looked up): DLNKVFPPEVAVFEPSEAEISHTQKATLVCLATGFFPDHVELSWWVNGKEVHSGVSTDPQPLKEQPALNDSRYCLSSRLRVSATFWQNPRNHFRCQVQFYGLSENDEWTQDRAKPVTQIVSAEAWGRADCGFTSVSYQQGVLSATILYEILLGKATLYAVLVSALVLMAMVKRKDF

[3] = biological target: cynomolgus TCR on primary cynomolgus T cells (cynomolgus); test: cell-based or functional assay
human GPC3 on cells [4] = biological target: T1, human GPC3 on cells; test: flow cytometry, binding to Huh-7 cells
human GPC3 (recombinant) = biological target: T3, human GPC3 (recombinant) (human, UniProt P51654 25-559); test: SPR, ProteOn XPR36; GPC3 captured on anti-His antibody
T3 construct: also called human Glypican-3
Experimental: (§1) Recombinant GPC3 proteins were captured on a GLC Sensor Chip (Biorad) immobilized with THE anti-His antibody (Genscript, cat no ABIN387699) via amine coupling, using EDC and NHS chemistry (running buffer: HBS-EP+, pH7.4). Purified ISVDs were injected for 2 minutes (flow rate 45 μL/min) at different concentrations (between 0.3 nM and 1000 nM) and dissociation was followed for 900 s. Regeneration was performed by injecting 10 mM Glycine-HCl (pH 1.5) for 1 minute (flow rate 45 μL/min). […] Processed sensorgrams were analyzed based on the 1:1 interaction model (Langmuir binding model) using ProteOn Manager 3.1.0 (Version 3.1.0.6) software.

[5] = biological target: T4, cyno GPC3 (recombinant, in house produced) (cynomolgus, UniProt A0A2K5VK50 24-558); test: as above
T4 construct: also called cynomolgus Glypican-3
Experimental: as §1

[6] = biological target: T5, Cynomolgus TCR(AEA41865/AEA41866)-zipper protein (cynomolgus); test: SPR, ProteOn XPR36; TCR-zipper protein immobilised by amine coupling
T5 construct: also called cyTCR-zipper; cyTCR(AEA41865)-zipper
T5 TCR alpha: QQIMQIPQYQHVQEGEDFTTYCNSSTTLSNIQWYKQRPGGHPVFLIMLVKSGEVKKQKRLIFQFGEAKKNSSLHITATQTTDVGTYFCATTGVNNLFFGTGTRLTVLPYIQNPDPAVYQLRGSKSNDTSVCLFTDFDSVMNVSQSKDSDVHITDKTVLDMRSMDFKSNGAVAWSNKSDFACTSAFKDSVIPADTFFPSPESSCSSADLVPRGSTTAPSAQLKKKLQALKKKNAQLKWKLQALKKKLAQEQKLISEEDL
T5 TCR beta: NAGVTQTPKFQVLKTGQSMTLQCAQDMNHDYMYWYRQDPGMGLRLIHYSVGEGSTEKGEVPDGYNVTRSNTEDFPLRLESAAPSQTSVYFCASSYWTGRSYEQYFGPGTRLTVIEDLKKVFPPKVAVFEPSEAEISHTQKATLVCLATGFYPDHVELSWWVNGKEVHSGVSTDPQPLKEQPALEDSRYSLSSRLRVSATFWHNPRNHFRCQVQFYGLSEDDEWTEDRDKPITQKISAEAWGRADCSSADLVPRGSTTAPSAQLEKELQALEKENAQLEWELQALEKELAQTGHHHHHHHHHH
Experimental: Purified ISVDs were injected for 2 minutes (flow rate 45 μL/min) at different concentrations (between 0.2 nM and 200 nM) and dissociation was followed for 900 s. Regeneration was performed by injecting 3 M MgCl₂ for 3 minutes (flow rate 90 μL/min). […] Processed sensorgrams were analyzed based on the 1:1 interaction model (Langmuir binding model) using ProteOn Manager 3.1.0 (Version 3.1.0.6) software.

[7] = biological target: T6, cyno GPC3 on CHO-Flp-In cells (cynomolgus, UniProt A0A2K5VK50 24-553); test: flow cytometry, binding to CHO-Flp-In cells overexpressing cyno GPC3
T6 construct: whole, on cells; also called CHO cyGPC3

human GPC3 on cells [8] = biological target: T1, human GPC3 on cells; test: flow cytometry, binding to CHO-Flp-In cells overexpressing human GPC3
[9] = biological target: T2, human TCR on primary human T cells; test: flow cytometry competition on primary human T cells; competitor Flag-tagged T017000624 at EC30
Experimental: (§2) T cells (human T cells obtained as described in Example 3 and cyno T cells purchased from LPT laboratory, Germany) were thawed and counted on the day of the assay and diluted to a concentration of 1E+06 cells/mL, before adding 75 μL to the wells of a V-bottom 96-well plate (Greiner, cat no 651180). Cells were washed once with cold FACS buffer, before adding 25 μL Nb and 25 μL competitor to the wells. […] Cells were resuspended and plates were incubated at 4° C. for 90 minutes, after which plates were washed twice in cold FACS buffer. […] Plates were washed twice in cold FACS buffer. […] Plates were washed twice in cold FACS buffer. Cells were resuspended in 55 μL 1/1000 diluted Propidium Iodide (Sigma-Aldrich, cat no P4170) in FACS buffer before acquiring data on the MACSQuant X (Miltenyi biotec).

[10] = biological target: T7, cynomolgus TCR on primary cynomolgus T cells (cynomolgus); test: flow cytometry competition on primary cynomolgus T cells; competitor Flag-tagged T017000623 at EC30
T7 construct: whole, on cells; also called cyno TCRαβ
Experimental: as §2

human CD123 on cells [11] = biological target: T8, human CD123 on cells (human, UniProt P26951 19-378); test: flow cytometry on CHO cells transfected with human CD123
T8 construct: also called CHO human CD123; CHO hu CD123

[12] = biological target: T9, cynomolgus CD123 on cells (cynomolgus); test: flow cytometry on HEK293 cells transfected with cynomolgus CD123
T9 construct: whole, on cells; also called HEK293 cyno CD123; cyCD123

human CD123 on cells [13] = biological target: T8, human CD123 on cells; test: flow cytometry on CHO Flp-In huCD123 cells; FLAG-tagged ISVD, anti-FLAG + APC goat anti-mouse; MFI (median APC) [panel CHO Flp-In huCD123 cells]
[14] = biological target: T9, cynomolgus CD123 on cells; test: flow cytometry on HEK Flp-In cyCD123 cells; FLAG-tagged ISVD, anti-FLAG + APC goat anti-mouse; MFI (median APC) [panel HEK Flp-In cyCD123 cells]
cyno GPC3 on cells = biological target: T10, cyno GPC3 on cells (cynomolgus monkey, UniProt A0A2K5VK50 24-553); test: flow cytometry on cells; lower end, tied by Table 44 to CHO cyGPC3
T10 construct: whole, on cells; also called CHO cyGPC3; CHO-Flp-In cells overexpressing cyno GPC3

human GPC3 on cells [15] = biological target: T11, human GPC3 on cells (human, UniProt P51654 25-554); test: flow cytometry on cells; upper end, tied by Table 44 to CHO huGPC3
T11 construct: whole, on cells; also called CHO huGPC3; CHO-Flp-In cells overexpressing human GPC3

human CD33 on cells = biological target: T12, human CD33 on cells (human, UniProt P20138 18-364); test: flow cytometry on CHO cells transfected with human CD33
T12 construct: whole, on cells; also called CHO hu CD33; huCD33

cynomolgus CD33 on cells = biological target: T13, cynomolgus CD33 on cells (cynomolgus); test: flow cytometry on CHO cells transfected with cynomolgus CD33
T13 construct: whole, on cells; also called CHO cy CD33; cyCD33

T8 sequence (P26951 19-378 limits assumed): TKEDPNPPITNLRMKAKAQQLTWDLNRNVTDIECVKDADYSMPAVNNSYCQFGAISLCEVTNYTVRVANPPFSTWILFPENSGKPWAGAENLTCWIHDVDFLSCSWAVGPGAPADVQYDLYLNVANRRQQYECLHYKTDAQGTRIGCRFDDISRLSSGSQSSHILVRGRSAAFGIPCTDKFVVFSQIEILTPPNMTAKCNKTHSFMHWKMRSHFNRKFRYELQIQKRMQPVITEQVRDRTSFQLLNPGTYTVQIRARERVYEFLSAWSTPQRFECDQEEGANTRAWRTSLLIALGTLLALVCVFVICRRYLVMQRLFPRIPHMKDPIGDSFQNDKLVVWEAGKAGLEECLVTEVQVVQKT
T12 sequence (P20138 18-364): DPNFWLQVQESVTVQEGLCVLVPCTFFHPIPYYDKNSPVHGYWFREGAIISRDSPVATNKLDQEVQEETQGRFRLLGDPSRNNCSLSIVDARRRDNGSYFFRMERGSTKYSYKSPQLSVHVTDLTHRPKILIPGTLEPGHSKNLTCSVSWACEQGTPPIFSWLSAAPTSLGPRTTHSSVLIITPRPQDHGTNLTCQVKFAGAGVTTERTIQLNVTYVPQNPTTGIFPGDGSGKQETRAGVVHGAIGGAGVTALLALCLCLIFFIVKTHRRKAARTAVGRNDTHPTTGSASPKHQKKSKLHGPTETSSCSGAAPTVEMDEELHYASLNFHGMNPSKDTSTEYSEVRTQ

B1: A022600424 (other)
chain: DVQLVESGGGVVQPGGSLRLSCVASGYVHKINFYGWYRQAPGKEREKVAHISIGDQTDYADSAKGRFTISRDESKNTVYLQMNSLRPEDTAAYYCRALSRIWPYDYWGQGTLVTVSSGGGGSEVQLVESGGGVVQPGGSLRLSCAASGFTFSSFAMTWVRRPPGKGLEWVATITNKGVTSYADSVKGRFTISRDNAKNTLYLQMNSLRPEDTALYICANARRTGPRAPTDIGSYRGQGTLVTVSSGGGGSGGGSEVQLVESGGGVVQPGGSLRLSCAASGSIFRSVFSSSTMEWYRQAPGKKRELVARIAPGEGTYYGALYADSVKGRFTISRDNAKNTVYLQMNSLRPEDTALYYCASGVAWGQGTLVTVSSGGGGSGGGSEVQLVESGGGVVQPGGSLRLSCAASGFTFRSFGMSWVRQAPGKGPEWVSSISGSGSDTLYADSVKGRFTISRDNSKNTLYLQMNSLRPEDTALYYCTIGGSLSRSSQGTLVTVSSA
notes: also called T017000680-5GS-A022600351-9GS-A022600314-9GS-ALB23002-A
Q: Which results are given for B1?
A: IC50 (M) BxPC-3, xCELLigence human TDC assay, E:T 15:1, 60 h (human GPC3 on cells [1]): > 1e-07 M; IC50 (M) HepG2, xCELLigence human TDC assay, E:T 15:1, 60 h (human GPC3 on cells [1]): 1.15e-10 M; IC50 (M) Huh-7, xCELLigence human TDC assay, E:T 15:1, 60 h (human GPC3 on cells [1]): 1.16e-10 M; IC50 (M) NCI-H23, xCELLigence human TDC assay, E:T 15:1, 60 h (human GPC3 on cells [1]): > 1e-07 M; IC50 (M) NCI-H661, xCELLigence human TDC assay, E:T 15:1, 60 h (human GPC3 on cells [1]): 1.14e-10 M; Primary hu T cells IC50 (M), xCELLigence TDC assay on Huh-7, E:T 15:1, 60 h [2]: 7.59e-11 M; Primary cy T cells IC50 (M), xCELLigence TDC assay on Huh-7, E:T 15:1, 60 h [3]: 2.29e-10 M; EC50 (human GPC3 on cells [4]): 1.25 nM; Kd (human GPC3 (recombinant)): < 0.0056 nM; Kd [5]: < 0.0059 nM; Kd [6]: 5.4 nM; EC50 [7]: 1.11 nM; EC50 (human GPC3 on cells [8]): 1.82 nM; IC50 [9]: 170 nM; IC50 [10]: 250 nM

B2: monovalent CD123 building block (SEQ ID NO: 462) (VHH)
VHH: EVQLVESGGGVVQPGGSLRLSCAASGVIFSGNVMGWYRRQAPGKEREWVAAIAEGGSILYRDSVKGRFTISRDNAKNTVYLQMNSLRPEDTALYYCNSHPPVLPYWGQGTLVTVSS
Q: With B2 as the binder, how does the EC50 (human CD123 on cells [11]) read?
A: 0.31 nM and 0.2 nM

Q: And the EC50 [12]?
A: 0.8 nM

Q: What about the “EC50 (read off the curve)” value (human CD123 on cells [13]) of the same binder?
A: ~0.7 nM

Q: What about the “EC50 (read off the curve)” value [14] of the same binder?
A: ~0.3 nM

B3: A022600424 (other)
chain: B1 chain
notes: as for B1
Q: How did the EC50 (cyno GPC3 on cells) turn out when B3 was run?
A: 1 to 2 nM

Q: And the EC50 (human GPC3 on cells [15])?
A: 1 to 2 nM

B4: monovalent CD33 building block (SEQ ID NO: 463) (VHH)
VHH: EVQLVESGGGVVQPGGSLRLSCAASGGVFRLNSMGWFRQAPGKQRELVAIITSDGDTNYADSVKGRFTISRDQAKNTVYLQMNSLRPEDTALYYCQITYSTSSYSFPINTWGQGTLVTVSS
Q: B4 was tested. Which EC50 (human CD33 on cells) did it give?
A: 6.2 nM and 5.5 nM and 7.7 nM

Q: And the EC50 (cynomolgus CD33 on cells)?
A: 5.7 nM and 12 nM
